According to the supplement of paper PMC10126150:
± gives the standard deviation of the averaged measurements.

Test system: ATP
Experiment: switch fluorescence ratio, 500 uM ATP over buffer (Cy3 cluster intensity, sum of 5 cycles each) (fold (ratio)); higher = stronger signal-on switching upon ATP binding; sequences stand for … in TCGTCGGCAGCGTCAGATGTGTATAAGAGACAGTTTTTTTTTTTTTTTTTTTTTTTTT…TC
Conditions: aptamer strand: ATP DNA aptamer (quencher-CACCTGGGGGAGTATTGCGGAGGAAGG + anchor), 100 nM annealed; ATP concentration: 500 uM
How it was run: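 Imaging in selection buffer was followed by imaging after 15 min with 500 uM ATP at 22 °C, for Cy3-labelled switching-strand clusters annealed to 100 nM quencher-labelled ATP aptamer on a modified Illumina MiSeq flow-cell. Five of these buffer/ATP cycles ran, separated by NaOH stripping and re-annealing. The fluorescence ratio per cluster is summed target-cycle over summed buffer-cycle Cy3 intensity, averaged per switch-domain sequence; clusters outside 100-1000 RFU were removed.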
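Further: ATP exposure 15 min at 22 °C before imaging.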

Sequence | switch fluorescence ratio
CAGGATTGGC | 1.07 ± 0.019
CAGGCGTGTG | 0.995 ± 0.011
CAGGCTACCT | 1.2 ± 0.092
CAGGCTATTG | 0.988 ± 0.023
CAGGGAAAAT | 0.982 ± 0.012
CAGGGAAGG | 0.995 ± 0.016
CAGGGACGGG | 1.03 ± 0.018
CAGGGCGC | 1.02 ± 0.088
CAGGGCGGAA | 1.02 ± 0.019
CAGGGCGGGA | 0.936 ± 0.028
CAGGGCGTGG | 0.948 ± 0.038
CAGGGCGTTC | 0.9856 ± 0.0044
CAGGGGAAAG | 1.01 ± 0.033
CAGGGGAATG | 0.994 ± 0.021
CAGGGGAGCA | 1.02 ± 0.039
CAGGGGATGC | 0.987 ± 0.067
CAGGGGCACG | 1.06 ± 0.04
CAGGGGCTGG | 1.05 ± 0.03
CAGGGGGACG | 0.923 ± 0.063
CAGGGGGAGG | 1.03 ± 0.048
CAGGGGGCAC | 1.05 ± 0.042
CAGGGGGGCC | 1.03 ± 0.02
CAGGGGGTTA | 1.02 ± 0.026
CAGGGGGTTT | 1.01 ± 0.044
CAGGGGTGCT | 1.03 ± 0.03

Sequence | switch fluorescence ratio
CAGGGTACGG | 1.01 ± 0.052
CAGGGTGAAC | 1.02 ± 0.019
CAGGGTGCAT | 1.02 ± 0.051
CAGGGTGCTG | 0.973 ± 0.033
CAGGGTGTGC | 1.012 ± 0.00054
CAGGGTTGAG | 0.997 ± 0.014
CAGGGTTGCC | 0.996 ± 0.018
CAGGGTTTTT | 0.999 ± 0.017
CAGGTAAGAG | 0.987 ± 0.013
CAGGTACGGG | 1.02 ± 0.025
CAGGTAGTGC | 1.04 ± 0.096
CAGGTCACTG | 0.965 ± 0.044
CAGGTCATGC | 1.02 ± 0.058
CAGGTCGTTT | 1.032 ± 0.0069
CAGGTCTTAA | 0.9719 ± 0.0054
CAGGTGACGC | 1.07 ± 0.014
CAGGTGGGGC | 1.02 ± 0.035
CAGGTGGGTC | 1.02 ± 0.018
CAGGTTAATG | 1.0027 ± 0.00049
CAGGTTGATG | 1.01 ± 0.032
CAGGTTGCCT | 0.999 ± 0.046
CAGGTTGGGG | 1.03 ± 0.054
CAGGTTGTGG | 0.992 ± 0.024
CAGGTTTTTT | 0.989 ± 0.019
CAGTAATATT | 1.06 ± 0.017

Sequence | switch fluorescence ratio
CAGTAGAGGG | 0.977 ± 0.028
CAGTAGCGG | 1.14 ± 0.018
CAGTAGGGTC | 0.997 ± 0.014
CAGTAGGTCT | 1.01 ± 0.027
CAGTAGTTTT | 1 ± 0.017
CAGTATATTG | 0.995 ± 0.025
CAGTATTTCC | 1.05 ± 0.043
CAGTCAGGGC | 1.26 ± 0.21
CAGTCATATT | 1.02 ± 0.034
CAGTCGAGTT | 1.003 ± 0.0076
CAGTCGGTCA | 1.01 ± 0.032
CAGTCGGTGG | 1 ± 0.031
CAGTCGTGGA | 0.969 ± 0.016
CAGTCTATCA | 0.972 ± 0.029
CAGTCTATCG | 1.01 ± 0.021
CAGTCTGCAG | 0.991 ± 0.031
CAGTCTGGTG | 1.01 ± 0.025
CAGTGAATGA | 1.03 ± 0.017
CAGTGAGATG | 1.03 ± 0.019
CAGTGAGCTC | 0.981 ± 0.022
CAGTGAGGTT | 1.02 ± 0.031
CAGTGCCAGC | 0.999 ± 0.035
CAGTGTGAAG | 0.958 ± 0.016
CAGTGTGGTC | 0.979 ± 0.055
CAGTTACGAC | 1.13 ± 0.055

Sequence | switch fluorescence ratio
CAGTTAGTGT | 1.001 ± 0.00021
CAGTTATGCC | 0.988 ± 0.077
CAGTTCCATG | 0.9857 ± 0.0091
CAGTTCGGGA | 0.989 ± 0.02
CAGTTGGATT | 1.01 ± 0.04
CAGTTGGTC | 0.995 ± 0.037
CAGTTTCAGG | 0.966 ± 0.043
CAGTTTCCTC | 1.08 ± 0.015
CAGTTTGACC | 0.987 ± 0.048
CAGTTTTCCC | 1.01 ± 0.016
CAGTTTTCTT | 1.01 ± 0.062
CAGTTTTTTC | 1.005 ± 0.0054
CATAACGTTA | 1.032 ± 0.0071
CATAAGGTAT | 0.999 ± 0.046
CATAATCCGA | 1.048 ± 0.0029
CATAATCCGG | 0.9679 ± 0.0022
CATAATGGTC | 0.986 ± 0.041
CATAATTGGG | 0.995 ± 0.028
CATAATTGTA | 0.979 ± 0.019
CATACAATAT | 1.109 ± 0.0014
CATACTTTGG | 1.01 ± 0.016
CATAGGCTAC | 1.6 ± 0.031
CATAGGGCTT | 0.963 ± 0.025
CATAGGTTCT | 0.986 ± 0.023
CATAGGTTGC | 0.983 ± 0.041

Sequence | switch fluorescence ratio
CATAGTGATC | 1.051 ± 0.0011
CATATAAACT | 1.039 ± 0.0047
CATATATGTC | 1 ± 0.056
CATATCTAGG | 0.997 ± 0.025
CATATCTGAC | 1.16 ± 0.056
CATATCTGAT | 1.01 ± 0.041
CATATCTGTT | 1.02 ± 0.024
CATATGCGTC | 1.02 ± 0.035
CATATGCTGC | 1.0589 ± 0.00039
CATATGTTAG | 1 ± 0.038
CATATTCGCT | 1.01 ± 0.016
CATATTTCCA | 0.99 ± 0.02
CATATTTCGG | 0.995 ± 0.03
CATATTTT | 0.971 ± 0.047
CATATTTTTA | 1.04 ± 0.05
CATCAGGCAC | 1.2 ± 0.023
CATCATCTTG | 1 ± 0.062
CATCATGTAC | 1.33 ± 0.059
CATCCGAGGT | 1.14 ± 0.23
CATCCGTGGG | 1.75 ± 0.085
CATCCTTTAA | 1.007 ± 0.0082
CATCGATTGT | 1 ± 0.019
CATCGCGGAC | 3.88 ± 0.45
CATCGGATAT | 1.04 ± 0.052
CATCGGCAAG | 5.75 ± 1.3

Sequence | switch fluorescence ratio
CATCGTATGG | 0.954 ± 0.022
CATCTCAGTG | 1.03 ± 0.015
CATCTGGCTT | 1.0536 ± 0.00031
CATCTGTGCG | 1.02 ± 0.016
CATGAAGGGG | 1.02 ± 0.015
CATGAATGGA | 1.01 ± 0.017
CATGACTAGA | 0.981 ± 0.014
CATGAGAGGT | 1 ± 0.018
CATGAGATAC | 1.16 ± 0.022
CATGAGATTG | 0.971 ± 0.029
CATGAGGGAG | 0.996 ± 0.019
CATGAGTAAG | 1 ± 0.015
CATGAGTATT | 0.954 ± 0.033
CATGATGTTG | 0.975 ± 0.026
CATGCAGCAT | 1.11 ± 0.02
CATGCCGCAT | 1.133 ± 0.0092
CATGCTAAGT | 0.997 ± 0.011
CATGCTGGG | 0.992 ± 0.04
CATGCTTGGC | 1.01 ± 0.055
CATGCTTTGT | 0.9924 ± 0.0069
CATGGAGGTC | 1.03 ± 0.026
CATGGAGTGT | 1.01 ± 0.026
CATGGATACG | 1.01 ± 0.021
CATGGGAGAG | 1.05 ± 0.026
CATGGGAGCT | 1.01 ± 0.043

Sequence | switch fluorescence ratio
CATGGGGCCT | 0.9984 ± 0.0027
CATGGGGGAG | 0.978 ± 0.035
CATGGGGGTA | 0.982 ± 0.026
CATGGGTGCG | 1.02 ± 0.014
CATGGTATTA | 1.01 ± 0.044
CATGGTCATG | 1 ± 0.017
CATGGTGTGT | 1.01 ± 0.011
CATGTAAGGC | 1.03 ± 0.021
CATGTATTGG | 0.991 ± 0.021
CATGTCATTG | 1.01 ± 0.015
CATGTCCAGG | 1.46 ± 0.059
CATGTCGAGC | 1.02 ± 0.059
CATGTCGTTT | 1 ± 0.017
CATGTGCACC | 1.014 ± 0.0092
CATGTGTAAT | 1.009 ± 0.0086
CATGTTCTTT | 0.999 ± 0.026
CATGTTGAAG | 0.986 ± 0.077
CATGTTTGCT | 0.961 ± 0.02
CATGTTTTGC | 1.01 ± 0.065
CATTAATGGG | 1.01 ± 0.019
CATTACCGGA | 1.012 ± 0.0098
CATTAGCAGG | 1.08 ± 0.032
CATTAGCCAG | 0.99754 ± 0.00029
CATTAGGGCT | 0.978 ± 0.015
CATTATGATG | 1.01 ± 0.013

Sequence | switch fluorescence ratio
CATTCACATT | 1.05 ± 0.034
CATTCAGTTT | 0.949 ± 0.021
CATTCCGAGA | 1.4 ± 0.024
CATTCCGGGA | 1.63 ± 0.72
CATTCTACTG | 1.04 ± 0.021
CATTCTGACC | 1.08 ± 0.036
CATTCTGCGC | 1.16 ± 0.05
CATTGACATT | 1.06 ± 0.026
CATTGAGGTT | 0.979 ± 0.02
CATTGATGTG | 1 ± 0.011
CATTGGCCGG | 1.095 ± 0.0025
CATTGGTAGT | 0.977 ± 0.035
CATTGGTTGT | 0.927 ± 0.025
CATTGTGTAT | 0.975 ± 0.029
CATTTAAAG | 1.01 ± 0.031
CATTTAACGT | 0.991 ± 0.0041
CATTTAGAGG | 1.007 ± 0.0073
CATTTAGTGT | 0.984 ± 0.012
CATTTAGTTG | 0.985 ± 0.042
CATTTATATG | 1.02 ± 0.026
CATTTATGCG | 0.989 ± 0.018
CATTTCAGAG | 1.003 ± 0.0062
CATTTCAGG | 1.05 ± 0.033
CATTTCGTTT | 0.957 ± 0.014
CATTTGAATT | 0.973 ± 0.033
